The supplement of paper PMC10567573

B1: KRT18 (parent)
chain: KSQDLAKIMADIRAQYDELARKNR
B2: SCARA5 (parent)
chain: VTEDLRLKDWEHSIALRNISLAKG

Variants of: B1
Experiment: protein stability index of a GFP-peptide fusion (GPS, HEK-293T) (PSI 1-6); higher = more stable
Conditions: c terminus: a fixed tail appended
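Note: lentivirally expressed fusions sorted by FACS into six bins by GFP to DsRed ratio, PSI derived from sequencing read proportions per bin multiplied by bin number.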

Variant	protein stability index
KSQDLAKIMADIRAQYDELIRKNR [A20I]	2.47
KSQDLAKIMADIRAQYDELLRKNR [A20L]	2.03
KSQDLAKIMADIRAQYDELMRKNR [A20M]	2.51
KSQDLAKIMADIDAQYDELARKNR [R13D]	4.35
KSQDLAKIMADIRAQADELARKNR [Y16A]	4.24
KSQDLAKIMADIRAQCDELARKNR [Y16C]	3.82
KSQDLAKIMADIRAQDDELARKNR [Y16D]	4.38
KSQDLAKIMADIRAQHDELARKNR [Y16H]	3.32
KSQDLAKIMADIRANYDELARKNR [Q15N]	3
KSQDLAKIMADIRAQYDELALKNR [R21L]	2.5
KSQDLAKIMADIRAQYDELAFKNR [R21F]	2.39
KSQDLAKIMADIRAQYCELARKNR [D17C]	1.96
KSQDLAKIMADIRAQYKELARKNR [D17K]	2.87
KSQDLAKIMADIRAQYMELARKNR [D17M]	1.51
KSQDLAKIMNDIRAQYDELARKNR [A10N]	3.09
KSQDLAKIMHDIRAQYDELARKNR [A10H]	2.75
KSQDLAKIMMDIRAQYDELARKNR [A10M]	2.3
KSQDLAKIMKDIRAQYDELARKNR [A10K]	2.91
KSQDLAKIMSDIRAQYDELARKNR [A10S]	2.84

Variant	protein stability index
KSQDLAKIMADIRAQYDEFARKNR [L19F]	2.46
KSQDLAKIMADIRAQYDECARKNR [L19C]	3.08
KSQDLAKIMADTRAQYDELARKNR [I12T]	4.07
KSQDLAKIMADKRAQYDELARKNR [I12K]	4.45
KSQDLAKIMADNRAQYDELARKNR [I12N]	4.26
KSQDLAKIMADVRAQYDELARKNR [I12V]	3.28
YSQDLAKIMADIRAQYDELARKNR [K1Y]	2.2
KSQDLAKIMADIRAQYDELARKNV [R24V]	2.57
KKQDLAKIMADIRAQYDELARKNR [S2K]	3.06
KGQDLAKIMADIRAQYDELARKNR [S2G]	2.59
KIQDLAKIMADIRAQYDELARKNR [S2I]	2.11
KVQDLAKIMADIRAQYDELARKNR [S2V]	1.9
KPQDLAKIMADIRAQYDELARKNR [S2P]	2.43
KTQDLAKIMADIRAQYDELARKNR [S2T]	2.7
KFQDLAKIMADIRAQYDELARKNR [S2F]	1.84
KSQDLIKIMADIRAQYDELARKNR [A6I]	2.01
KSQDLAKIMADIRAQYDMLARKNR [E18M]	2.54
KSQDLAKIMADIRAQYDVLARKNR [E18V]	2.31
KSQDLAKIMADIRAQYDRLARKNR [E18R]	2.39

Variant	protein stability index
KSQDLAKIMADIRAQYDELARKAR [N23A]	2.9
KSQDLAKIMADIRAQYDELARKKR [N23K]	2.87
KSQWLAKIMADIRAQYDELARKNR [D4W]	2.04
KSQDLAKRMADIRAQYDELARKNR [I8R]	3.35
KSQDLAKHMADIRAQYDELARKNR [I8H]	3.8
KSQDLAKIWADIRAQYDELARKNR [M9W]	2.38
KSQDLAKIYADIRAQYDELARKNR [M9Y]	3.08
KSQDLAKIEADIRAQYDELARKNR [M9E]	4.63
KSQDLAKIMARIRAQYDELARKNR [D11R]	2.85
KSQDLAKIMAQIRAQYDELARKNR [D11Q]	2.96
KSQDLAKIMADIREQYDELARKNR [A14E]	2.89
KSQDLAKIMADIRVQYDELARKNR [A14V]	2.68
KSQDLAKIMADIRLQYDELARKNR [A14L]	2.73
KSQDLAKIMADIRTQYDELARKNR [A14T]	2.58
KSQDLAKIMADIRYQYDELARKNR [A14Y]	3.27
KSQDTAKIMADIRAQYDELARKNR [L5T]	3.51
KSQDWAKIMADIRAQYDELARKNR [L5W]	2.62
KSQDLAYIMADIRAQYDELARKNR [K7Y]	1.86

Variants of: B2
Experiment: as above
Conditions: c terminus: a fixed tail appended

Variant	protein stability index
VTEDLRLKDWEHSIALRNISMAKG [L21M]	3.68
VTEDLRLKDWEHSIALRNISTAKG [L21T]	4.23
VTEDLRLKDWEHSIALRNISFAKG [L21F]	3.48
VTEDLRLKDWEHSIALRNISHAKG [L21H]	4.07
VTEDLRLKDWEHSIALRNISNAKG [L21N]	4.08
VTEDLRLKDWEHSIALRNISVAKG [L21V]	3.5
VTEDLRLKDWEHSIALRNISKAKG [L21K]	4.37
VTEDLRLKDWEHSIALRNISEAKG [L21E]	4.4
VTEDLRLKDWEHSIALRNISCAKG [L21C]	3.84
VTEDLRLKDWEHSIALRNISIAKG [L21I]	3.19
VTEDLRLKDWEHSIALRNISGAKG [L21G]	4.03
VTEDLRLKDWEHSIALRNISAAKG [L21A]	4.15
VTEDLRLKDWEHSIALRNISSAKG [L21S]	3.85
VTEDLRLKDWEHSIALRNISWAKG [L21W]	3.08
VTEDLRLKDWEHSIALRNISRAKG [L21R]	3.56
VTEDLRLKDWEHSIALRNISQAKG [L21Q]	3.65
VTEDLRLKDWEHSIALRNISYAKG [L21Y]	3.48
VTEDLRLKDWEHSIALRNISPAKG [L21P]	4.11
VTEDLRLKDWEHSIALRNISDAKG [L21D]	4.8

Variant	protein stability index
VTEDLRLKDWEHSIALRNISLQKG [A22Q]	3.51
VTEDLRLKDWEHSIALRNISLRKG [A22R]	3.33
VTEDLRLKDWEHSIALRNISLKKG [A22K]	3.95
VTEDLRLKDWEHSIALRNISLSKG [A22S]	3.24
VTEDLRLKDWEHSIALRNISLNKG [A22N]	3.61
VTEDLRLKDWEHSIALRNISLCKG [A22C]	3.37
VTEDLRLKDWEHSIALRNISLMKG [A22M]	2.82
VTEDLRLKDWEHSIALRNISLWKG [A22W]	2.16
VTEDLRLKDWEHSIALRNISLHKG [A22H]	3.9
VTEDLRLKDWEHSIALRNISLIKG [A22I]	3.37
VTEDLRLKDWEHSIALRNISLVKG [A22V]	3.23
VTEDLRLKDWEHSIALRNISLGKG [A22G]	3.14
VTEDLRLKDWEHSIALRNISLLKG [A22L]	2.67
VTEDLRLKDWEHSIALRNISLPKG [A22P]	3.77
VTEDLRLKDWEHSIALRNISLTKG [A22T]	2.97
VTEDLRLKDWEHSIALRNISLEKG [A22E]	3.69
VTEDLRLKDWEHSIALRNISLYKG [A22Y]	2.23
VTEDLRLKDWEHSIALRNISLDKG [A22D]	3.73
VTEDLRLKDWEHSIALRNISLFKG [A22F]	3.06
